Binding (%) data for 25 molecules are collected here from patent US20260274910A1, “SINGLE FUSION PROTEIN AND PHARMACEUTICAL COMPOSITION” (MEDI&GENE INC., priority 2023, published 2026).

The target in the test is ATP5B protein. The test can be described thus: SPR, ATP5B amine-coupled to CM5 chip, peptide in flow at 50 ul/min; binding units relative to SEQ ID NO: 12.
Sequence of ATP5B protein (P06576 48-529): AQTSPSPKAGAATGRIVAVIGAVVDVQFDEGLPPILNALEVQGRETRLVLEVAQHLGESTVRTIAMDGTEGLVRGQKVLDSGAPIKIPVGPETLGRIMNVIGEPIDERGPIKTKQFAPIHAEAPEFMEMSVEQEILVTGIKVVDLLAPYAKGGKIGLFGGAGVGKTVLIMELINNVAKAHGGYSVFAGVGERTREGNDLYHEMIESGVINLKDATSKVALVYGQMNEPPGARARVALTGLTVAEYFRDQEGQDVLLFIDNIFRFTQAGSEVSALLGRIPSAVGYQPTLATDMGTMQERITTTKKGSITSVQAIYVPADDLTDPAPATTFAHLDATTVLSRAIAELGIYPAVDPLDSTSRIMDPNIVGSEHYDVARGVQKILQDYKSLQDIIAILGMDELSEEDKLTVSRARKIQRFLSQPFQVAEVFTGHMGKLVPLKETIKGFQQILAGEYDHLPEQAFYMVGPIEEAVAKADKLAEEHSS

On to ADRGAGSIREAGGAFGKREQAEEERYFR [Shortened substance (8-35) amino acid Ala substituted (8)], for which the Binding (%) turned out to be 101%.

For VDRGAGSIREAGGAAGKREQAEEERYFR [Shortened substance (8-35) amino acid Ala substituted (22)], the Binding (%) was determined as 94%.

As for VDRGAGSIREAGGAFGKRAQAEEERYFR [Shortened substance (8-35) amino acid Ala substituted (26)], the Binding (%) was determined as 94.1%.

In the case of VDRGAGSIREAGGAFAKREQAEEERYFR [Shortened substance (8-35) amino acid Ala substituted (23)], the Binding (%) was determined as 102%.

In the case of VDRGAGSIREAGGAFGKAEQAEEERYFR [Shortened substance (8-35) amino acid Ala substituted (25)], the Binding (%) came to 85.2%.

As to VDRGAGSIREAGGAFGKREAAEEERYFR [Shortened substance (8-35) amino acid Ala substituted (27)], the Binding (%) is 89.5%.

VDRGAGSIREAGGAFGKREQAEEERYFR [Shortened substance (8-35)] showed a Binding (%) of 100%.

VDRGAGSIREAGGAFGKREQAAEERYFR [Shortened substance (8-35) amino acid Ala substituted (29)] returned a Binding (%) of 96.7%.

VDRGAGSIREAGGAFGKREQAEEERYFA [Shortened substance (8-35) amino acid Ala substituted (35)] displayed a Binding (%) of 110%.

For VDRGAGSAREAGGAFGKREQAEEERYFR [Shortened substance (8-35) amino acid Ala substituted (15)], the Binding (%) stood at 99.3%.

As to VDRGAGSIREAGAAFGKREQAEEERYFR [Shortened substance (8-35) amino acid Ala substituted (20)], the Binding (%) was 68%.

VDRGAGSIREAGGAFGAREQAEEERYFR [Shortened substance (8-35) amino acid Ala substituted (24)] registered a Binding (%) of 100%.

Turning to VDRGAGSIREAGGAFGKREQAEEARYFR [Shortened substance (8-35) amino acid Ala substituted (31)], the Binding (%) was 158%.

With VDRGAGSIRAAGGAFGKREQAEEERYFR [Shortened substance (8-35) amino acid Ala substituted (17)], the Binding (%) was 169%.

The molecule VDRGAGSIREAGGAFGKREQAEEERAFR [Shortened substance (8-35) amino acid Ala substituted (33)] had a Binding (%) of 146%.

In turn, VARGAGSIREAGGAFGKREQAEEERYFR [Shortened substance (8-35) amino acid Ala substituted (9)] displayed a Binding (%) of 91.6%.

Take VDRGAGSIREAAGAFGKREQAEEERYFR [Shortened substance (8-35) amino acid Ala substituted (19)]: the Binding (%) stood at 89.6%.

In turn, VDRGAGSIREAGGAFGKREQAEEEAYFR [Shortened substance (8-35) amino acid Ala substituted (32)] registered a Binding (%) of 426%.

Molecule VDAGAGSIREAGGAFGKREQAEEERYFR [Shortened substance (8-35) amino acid Ala substituted (10)] displayed a Binding (%) of 104%.

VDRAAGSIREAGGAFGKREQAEEERYFR [Shortened substance (8-35) amino acid Ala substituted (11)]: the Binding (%) turned out to be 100%.

For the molecule VDRGAGSIAEAGGAFGKREQAEEERYFR [Shortened substance (8-35) amino acid Ala substituted (16)], the Binding (%) amounted to 97%.

VDRGAGSIREAGGAFGKREQAEEERYAR [Shortened substance (8-35) amino acid Ala substituted (34)] registered a Binding (%) of 92.1%.

Take VDRGAGAIREAGGAFGKREQAEEERYFR [Shortened substance (8-35) amino acid Ala substituted (14)]: the Binding (%) turned out to be 98.8%.

VDRGAGSIREAGGAFGKREQAEAERYFR [Shortened substance (8-35) amino acid Ala substituted (30)]: the Binding (%) is 94%.

Regarding VDRGAASIREAGGAFGKREQAEEERYFR [Shortened substance (8-35) amino acid Ala substituted (13)], the Binding (%) stood at 98.5%.
